Measurements reported in paper PMC4305291.

Biological target: integrin αIIb_W968C (human)
Assay: cross-linking; disulfide between engineered cysteines in cells; S35-labelled CHO cells lysed, immunoprecipitated with anti-αIIb mAb 10E5 and protein G-Sepharose, SDS-PAGE with or without 2 mM DTT, radioautography

efficiency of disulfide formation: 100%
Substance: integrin β3_I693C (from UniProt P05106 27-788) (natural protein)
